T1: human aquaporin 3 (AQP3) on cells (human, UniProt Q92482 1-292)
T1 construct: whole, on cells; Water channel membrane protein; also called human AQP3; AQP3 on HaCaT cells
T1 sequence (looked up): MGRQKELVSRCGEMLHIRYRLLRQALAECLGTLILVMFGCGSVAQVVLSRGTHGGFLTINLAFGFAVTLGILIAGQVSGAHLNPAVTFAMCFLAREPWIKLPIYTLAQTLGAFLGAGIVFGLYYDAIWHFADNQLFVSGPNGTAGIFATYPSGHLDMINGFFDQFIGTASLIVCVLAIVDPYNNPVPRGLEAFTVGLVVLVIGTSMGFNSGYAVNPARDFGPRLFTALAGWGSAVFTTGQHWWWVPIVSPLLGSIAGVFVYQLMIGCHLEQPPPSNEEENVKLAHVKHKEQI

T2: oligopeptide ATYPSGHLDM (SEQ ID NO: 1) (human and mouse)
T2 construct: Synthetic peptide; positions 148 to 157 of the human AQP3 polypeptide, identical in mouse; also called peptide used for immunization; oligopeptide 5
T2 peptide: ATYPSGHLDM

T3: mouse aquaporin 3 (AQP3) on cells (mouse, UniProt Q8R2N1 1-292)
T3 construct: whole, on cells; Water channel membrane protein; also called mouse AQP3; AQP3 on PAM212 cells
T3 sequence (looked up): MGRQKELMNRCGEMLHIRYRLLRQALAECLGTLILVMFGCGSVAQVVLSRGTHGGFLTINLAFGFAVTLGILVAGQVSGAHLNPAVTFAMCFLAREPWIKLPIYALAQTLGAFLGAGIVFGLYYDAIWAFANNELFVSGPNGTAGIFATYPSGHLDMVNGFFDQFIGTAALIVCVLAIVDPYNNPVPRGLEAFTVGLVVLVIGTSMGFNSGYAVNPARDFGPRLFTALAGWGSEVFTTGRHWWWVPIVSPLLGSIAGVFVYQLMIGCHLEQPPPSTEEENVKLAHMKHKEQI

T4: mouse AQP3 in lysate of HEK293T cells overexpressing mouse AQP3 and a myc-biotinylated tag (mouse, UniProt Q8R2N1 1-292)
T4 construct: Cell lysate used in ELISA; also called AQP3 containing cell lysate; not shown: myc-biotinylated tag
T4 sequence (looked up): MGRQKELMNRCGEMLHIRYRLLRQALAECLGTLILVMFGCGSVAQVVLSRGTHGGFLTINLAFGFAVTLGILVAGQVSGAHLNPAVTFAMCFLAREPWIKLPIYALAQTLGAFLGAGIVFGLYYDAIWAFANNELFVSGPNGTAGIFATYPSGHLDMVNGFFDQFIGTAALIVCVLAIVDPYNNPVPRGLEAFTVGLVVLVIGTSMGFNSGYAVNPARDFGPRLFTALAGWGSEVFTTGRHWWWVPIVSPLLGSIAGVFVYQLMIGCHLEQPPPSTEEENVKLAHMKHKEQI


What was measured:
[1] = molecular target: T1, human aquaporin 3 (AQP3) on cells; assay: flow cytometry on HaCaT cells, 10 µg/mL (FIG. 6A)
Method: HaCaT cells were treated with Cell Dissociation Buffer for 30 minutes at 37° C., and then dislodged and collected. Then, the cells were reacted with 10 μg/mL anti AQP3 antibody at 4° C. for 1 hour. After washing the cells, a fluorescent-labeled secondary antibody was added and the reaction was allowed to occur additionally for 1 hour (4° C.). Then, by using a flow cytometer, fluorescence intensity was measured (FIG. 6A to FIG. 6C). FIG. 6A represents the result of a case in which antibody G was used, FIG. 6B represents the result of a case in which antibody H was used, and FIG. 6C represents the result of a case in which antibody J was used. […] The histogram expressed with bold line represents a case in which the anti AQP3 antibody was used while the histogram expressed with thin dotted line represents a case as a control in which the anti AQP3 antibody was not used (addition of non-specific IgG). […] Ratio (%) of the cells included in this range (=cells showing positive staining by anti AQP3 antibody) is also shown in the drawing.

[2] = molecular target: T2, oligopeptide ATYPSGHLDM (SEQ ID NO: 1); assay: ELISA on the immunogen peptide (FIG. 2)
[3] = molecular target: T3, mouse aquaporin 3 (AQP3) on cells; assay: fluorescence binding assay on PAM212 cells, 10 µg/mL (FIG. 5B)
Method: PAM212 and macrophage cells were reacted with each anti AQP3 antibody (0.1, 1, or 10 μg/mL) at 4° C. for 1 hour. After washing the cells, a fluorescent-labeled secondary antibody was added and the reaction was allowed to occur additionally for 1 hour (4° C.). By measuring the fluorescence intensity, the binding property of each anti AQP3 antibody to cells was obtained.
The assay was also performed using PAM212 cells and antibodies A, B, C, D, E, F, G, H, and J at a concentration of 10 μg/mL. Binding of antibodies C, D, E, G, and J to PAM212 cells was statistically significant.

[4] = molecular target: T4, mouse AQP3 in lysate of HEK293T cells …; assay: ELISA on lysate of HEK293T cells overexpressing mouse AQP3 (FIG. 3)
Source text: Cell lysate from HEK293T cells overexpressing mouse AQP3 and a myc-biotinylated tag was used in an ELISA assay to measure the binding of antibodies A, B, C, D, E, F, G, H, J, and K to AQP3. Cell lysate from HEK293T cells overexpressing the myc-biotinylated tag but not AQP3 was used as control. […] C. Antibody binding to AQP3 expressing cells

[5] = molecular target: T3, mouse aquaporin 3 (AQP3) on cells; assay: FACS on HEK293 cells stably overexpressing mouse AQP3, 10 µg/mL
Method: A FACS assay was also performed using HEK293 cells stably overexpressing mouse AQP3. Cells were incubated with antibody E, H, J, or negative control IgG at a concentration of 10 μg/mL for one hour and then sorted by FACS. Separately, HEK293 cells stably overexpressing human AQP3 were incubated with antibody E at a concentration of 10 μg/mL for one hour and then sorted by FACS.

[6] = molecular target: T1, human aquaporin 3 (AQP3) on cells; assay: fluorescence binding assay on HaCaT cells, 10 µg/mL (FIG. 5C)

| binding result [1] | binding result [2] | binding result [3] | binding result [4] | binding result [5] | binding result [6] | Binder |
| --- | --- | --- | --- | --- | --- | --- |
| binds | binds | binds | binds | – | – | Antibody G (antibody, mouse IgG2a, kappa, V domains shown, also called anti AQP3 antibody G; Antiboy G) VH: QVQLKQSGAELVRPGASVTLSCKASGYTFTDYEMHWVKQTPVHGLEWIGGIDPETGGTAYNQKFKGKAILTADKSSSTAYMELRSLTSEDSAVYYCTRWGAITSFVALRGFAYWGQGTLVTVSS VL: DIQMTQSPSSLSVSAGEKVTMSCKSSQSLLNSGNQKNYLAWYQQKPGQPPKLLIYGASTRESGVPDRFTGSGSGTDFTLTISSVQAEDLAVYYCQNDHSYPPTFGAGTKLELKR |
| – | binds | – | binds | binds | binds | Antibody H (antibody, mouse IgG2a, kappa, V domains shown, also called anti AQP3 antibody H) VH: EVKLVESGGDLVKPGGSLKLSCAASGFTFSSYGMSWVRQTPDKRLEWVATISRRSIYTYYPDSVQGRFTISRDNAKNTLYLQMSSLKSEDTAMYYCARLSLYDYDGARYTMDYWGQGTSVTVSS VL: DIKMTQSPKFMSTSVGDRVSITCKASQDVGTAVAWYQQKPGQSPKLLIYWASTRHTGVPDRFTGSGSGTDFTLTISNVQSEDLADYFCQQYSSYHTFGAGTKLEIKR |

Reference: patent US20220298237A1 (KEIO UNIVERSITY, published 2022)
